# B1: L-amino acid deaminase (L-AAD) from Proteus vulgaris (Proteus vulgaris) (protein)
# chain: MAISRRKFIIGGTVVAVAAGAGILTPMLTREGRFVPGTPRHGFVEGTEGALPKQADVVVVGAGILGIMTAINLVERGLSVVIVEKGNIAGEQSSRFYGQAISYKMPDETFLLHHLGKHRWREMNAKVGIDTTYRTQGRVEVPLDEEDLVNVRKWIDERSKNVGSDIPFKTRIIEGAELNQRLRGATTDWKIAGFEEDSGSFDPEVATFVMAEYAKKMGVRIYTQCAARGLETQAGVISDVVTEKGAIKTSQVVVAGGVWSRLFMQNLNVDVPTLPAYQSQQLISGSPTAPGGNVALPGGIFFREQADGTYATSPRVIVAPVVKESFTYGYKYLPLLALPDFPVHISLNEQLINSFMQSTHWNLDEVSPFEQFRNMTALPDLPELNASLEKLKAEFPAFKESKLIDQWSGAMAIAPDENPIISEVKEYPGLVINTATGWGMTESPVSAELTADLLLGKKPVLDPKPFSLYRF
# Substrate: CC(C)C[C@H](N)C(=O)O
# Assay: alpha-ketoisocaproate formation, Michaelis-Menten fit
# Format: biochemical, Proteus vulgaris
# Settings: 20 mM phosphate pH 7.5, 37 °C, 0-175 mM L-leucine (b36 says optimal temperature and pH), Triton X-100 purified enzyme
protein,measurement,value
B1,Km,17.71 mmol/L
same,kcat,1.41 s⁻¹
same,kcat/Km,79.5 M⁻¹ s⁻¹
